Data published in patent publication US20260015406A1 (University of Pennsylvania, published 2026).

Tests used:
[1] = biological target: switchable CAR (sCAR) with anti-PNE single chain variable fragment; experiment: flow cytometry, PNE-FITC titrated on sCAR T cells
[2] = biological target: T1, human full length aminopeptidase N (APN, aka CD13) (human, UniProt P15144 2-967); experiment: flow cytometry on patient-derived AML cells (AML2844)
T1 construct: whole, on cells

[3] = biological target: T2, human full length CDH17, also called cadherin 17 or liver-intestine cadherin (human, UniProt Q12864 23-832); experiment: cell-based or functional assay
T2 sequence (looked up): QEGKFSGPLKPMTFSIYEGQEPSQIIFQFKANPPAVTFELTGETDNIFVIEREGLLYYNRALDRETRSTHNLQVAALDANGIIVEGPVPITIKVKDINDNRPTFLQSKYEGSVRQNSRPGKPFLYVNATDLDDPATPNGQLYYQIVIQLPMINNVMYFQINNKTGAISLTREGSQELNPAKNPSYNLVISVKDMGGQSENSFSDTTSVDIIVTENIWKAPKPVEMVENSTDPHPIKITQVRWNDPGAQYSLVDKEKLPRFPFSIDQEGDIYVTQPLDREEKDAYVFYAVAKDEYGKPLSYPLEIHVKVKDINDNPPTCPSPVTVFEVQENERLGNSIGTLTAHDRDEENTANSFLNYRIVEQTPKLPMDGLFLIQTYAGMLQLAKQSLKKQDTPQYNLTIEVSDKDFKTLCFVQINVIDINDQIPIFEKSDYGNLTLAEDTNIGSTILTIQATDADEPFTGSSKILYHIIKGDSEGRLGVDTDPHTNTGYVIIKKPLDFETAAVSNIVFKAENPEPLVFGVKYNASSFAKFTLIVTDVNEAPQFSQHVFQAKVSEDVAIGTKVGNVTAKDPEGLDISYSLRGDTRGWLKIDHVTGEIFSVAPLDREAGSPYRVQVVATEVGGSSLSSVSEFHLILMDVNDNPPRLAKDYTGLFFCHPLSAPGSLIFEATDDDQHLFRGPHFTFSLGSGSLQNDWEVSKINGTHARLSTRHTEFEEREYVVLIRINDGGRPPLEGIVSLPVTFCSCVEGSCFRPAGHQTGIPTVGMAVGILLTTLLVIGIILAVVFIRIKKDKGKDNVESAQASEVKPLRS

[4] = biological target: T2, human full length CDH17, also called …; experiment: flow cytometry, VHH1-expressing phage on HEK293T cells transfected with membrane protein cDNAs
Description: (§1) Next, to identify the protein antigen of the isolated VHH1 nanobody, ˜3000 human cell membrane protein cDNAs were prepared and transfected into HEK293T cells individually, followed by flow cytometry analysis with the VHH1-expressing phage and FITC-labeled secondary antibody against phage M13 protein (FIG. 12A). […] Human or mouse CDH17 cDNA was transiently transfected into HEK293T cells, followed by flow cytometry analysis with the VHH1-expressing phage and FITC-labeled secondary antibody against phage M13 protein.

[5] = biological target: T3, mouse CDH17 (mouse, UniProt Q9R100 26-827); experiment: flow cytometry, VHH1-expressing phage on HEK293T cells transiently transfected with CDH17 cDNA
T3 construct: whole, on cells
T3 sequence (looked up): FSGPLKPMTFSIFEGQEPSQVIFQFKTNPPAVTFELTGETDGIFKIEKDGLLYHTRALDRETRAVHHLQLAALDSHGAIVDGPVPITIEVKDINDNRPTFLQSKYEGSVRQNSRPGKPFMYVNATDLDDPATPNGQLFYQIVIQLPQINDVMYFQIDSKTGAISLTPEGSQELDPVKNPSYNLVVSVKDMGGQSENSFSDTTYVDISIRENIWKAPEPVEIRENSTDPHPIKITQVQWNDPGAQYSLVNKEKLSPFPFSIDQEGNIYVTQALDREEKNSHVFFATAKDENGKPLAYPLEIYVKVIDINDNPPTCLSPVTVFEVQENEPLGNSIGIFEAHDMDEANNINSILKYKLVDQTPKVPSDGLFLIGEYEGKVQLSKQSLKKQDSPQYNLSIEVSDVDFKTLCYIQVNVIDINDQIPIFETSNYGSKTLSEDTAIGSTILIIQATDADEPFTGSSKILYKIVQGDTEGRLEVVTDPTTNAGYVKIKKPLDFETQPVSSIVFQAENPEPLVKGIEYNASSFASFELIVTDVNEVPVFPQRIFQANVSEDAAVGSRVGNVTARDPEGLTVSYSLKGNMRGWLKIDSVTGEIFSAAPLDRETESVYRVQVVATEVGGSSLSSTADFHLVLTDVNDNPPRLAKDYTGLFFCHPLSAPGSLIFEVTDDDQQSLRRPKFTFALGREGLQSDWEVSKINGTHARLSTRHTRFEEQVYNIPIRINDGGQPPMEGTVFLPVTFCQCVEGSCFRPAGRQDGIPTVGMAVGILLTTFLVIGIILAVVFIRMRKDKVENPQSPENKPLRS
Description: as §1

[6] = biological target: T1, human full length aminopeptidase N …; experiment: flow cytometry on THP-1 cells (endogenous CD13)

T1 sequence (P15144 2-967): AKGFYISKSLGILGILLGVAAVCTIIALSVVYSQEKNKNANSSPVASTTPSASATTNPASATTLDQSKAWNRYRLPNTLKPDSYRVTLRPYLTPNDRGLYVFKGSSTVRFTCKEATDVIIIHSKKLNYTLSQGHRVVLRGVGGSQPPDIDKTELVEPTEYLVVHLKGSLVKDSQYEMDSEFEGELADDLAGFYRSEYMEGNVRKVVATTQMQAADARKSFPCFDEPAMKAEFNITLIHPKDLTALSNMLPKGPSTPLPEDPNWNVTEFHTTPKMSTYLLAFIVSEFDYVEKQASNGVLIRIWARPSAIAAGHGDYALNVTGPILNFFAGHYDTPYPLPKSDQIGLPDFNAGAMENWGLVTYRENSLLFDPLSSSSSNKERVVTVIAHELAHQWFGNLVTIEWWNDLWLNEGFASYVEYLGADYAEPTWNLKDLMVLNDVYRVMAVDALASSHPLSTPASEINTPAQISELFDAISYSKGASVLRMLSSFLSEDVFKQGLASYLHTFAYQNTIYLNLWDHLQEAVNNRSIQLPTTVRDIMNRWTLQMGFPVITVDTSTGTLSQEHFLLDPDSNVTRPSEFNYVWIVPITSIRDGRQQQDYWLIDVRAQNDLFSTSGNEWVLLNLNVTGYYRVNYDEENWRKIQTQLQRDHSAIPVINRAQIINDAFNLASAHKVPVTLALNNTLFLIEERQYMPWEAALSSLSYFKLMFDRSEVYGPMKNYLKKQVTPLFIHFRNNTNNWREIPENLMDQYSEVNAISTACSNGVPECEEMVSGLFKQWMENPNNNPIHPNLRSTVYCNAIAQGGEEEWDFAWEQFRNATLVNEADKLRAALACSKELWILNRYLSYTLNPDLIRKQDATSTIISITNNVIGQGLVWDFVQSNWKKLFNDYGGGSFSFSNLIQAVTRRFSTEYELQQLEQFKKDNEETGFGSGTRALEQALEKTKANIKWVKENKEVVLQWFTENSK

Q: How did the EC50 [1] turn out when FITC-labeled PNE-peptide was run?
A: 1 nM

B1: Nb163 (VHH)
VHH: QVQLQESGGGLVQPGGSLRLSCVPSGFTFDGYLIGWFRQAPGSERKAVSCISVNGDRTNYADSVKGRFTISRDNAKNTVYLQMNSLRPNDTAIYYCATRRGNRLYNNNCPYFEYGTWGQGTQVTVSS
notes: also called VHH163; VH163
Q: Does B1 bind [2]?
A: binds

B2: VLV-DM1 (VHH, not shown: small tags and cut ends)
VHH 1: QVQLQESGGGLVQPGGSTRLSCVSSRTFSYYDMGWFRQAPGKEREFVALLSWNGENAEYSDSVMGRFTVSRGNTQNSVNLQMNNLKPEDTGIYYCAVTHGGARSVRSWGQGTQVTVSS
VHH 2: B2 VHH 1
modifications: Mertansine (DM1) is conjugated to the VLV protein; the residues, number of drugs and chemical linker are not stated. In reality one polypeptide: the two VHH1 units are joined by a peptide linker whose letters are not given.
Q: With B2 as the molecule, how does the “IC50, in vitro killing of BON cells (MTT assay)” value [3] read?
A: 1.2 nM

B3: VHH1 nanobody (VHH)
VHH: B2 VHH 1
notes: From a naive llama phage library panned on BON cells
Q: Does B3 bind [4]?
A: binds

Q: Does B3 bind [5]?
A: binds

B4: Nb157-C-PNE (VHH)
VHH: QVQLQESGGGLVQPGGSLSLSCTASGFTFSSYSMAWVRQAPGKGPEWVSGIYPSDGKTRYADFVKGRFSISRDNAKNMLYLQMNNLEPEDTALYYCARGITGLGPRGQGTQVTVSS
notes: also called VHH157-C-PNE; Nb157 with C-terminal PNE; not shown: PNE, a fourteen amino acid peptide
Q: Which Kd [6] does the source give for B4 here?
A: ~35 nM

B5: Nb157 (VHH)
VHH: B4 VHH
notes: Llama nanobody from the THP-1-immunised library; also called VHH157; VH157
Q: For B5, which Kd [6] is on record?
A: ~35 nM

B6: Nb157-N-PNE (VHH)
VHH: B4 VHH
notes: also called VHH157-N-PNE; Nb157 with N-terminal PNE; not shown: PNE, a fourteen amino acid peptide
Q: With B6 as the molecule, how does the Kd [6] read?
A: ~90 nM
